Key:
GST-human NOGO-A56 [1] = target: T1, GST-human NOGO-A56 (human, UniProt P08515 1-218 = GST); assay: SPR (Biacore 3000), GST-human NOGO-A56 on CM5, antibody as analyte; mean (SD) of two experiments
T1 construct: GST-tagged fusion expressed in E. coli BL21 and purified on glutathione-sepharose; coated on ELISA plates or amine-coupled to a CM5 chip; also called hNOGO; recombinant human NOGO
Method: (§1) hNOGO (GST-human NOGO-A56) was immobilised to a CM5 chip by primary amine coupling using the Biacore Wizard program designed for targeted immobilisation levels. The CM5 sensor surface was activated by passing a solution of 50 mM N-hydroxy-succinimide (NHS) and 200 mM N-ethyl-N′-dimethylaminopropyl […] (EDC). Then hNOGO in sodium acetate buffer, pH5.0 or pH 4.5, was passed over the chip and immobilised. After immobilisation was complete any still activated esters were blocked by an injection of 1M ethanolamine hydrochloride, pH8.5.
(§2) The anti-NOGO mAbs were diluted down in HBS-EP (10 mM HEPES, pH 7.4, 150 mM NaCl, 3 mM EDTA, and 0.005% P-20 surfactant) and binding studies were carried out at range of defined antibody concentrations. All runs were referenced against a blanked sensor surface (one that had been activated and blocked as described earlier but had no addition of ligand). Analysis of binding was carried out using the BIAevaluation kinetic analysis software version 4.1. Biacore analysis of other antibodies of the invention essentially followed the same protocol as described herein.

GST-human NOGO-A56 [2] = target: T1, GST-human NOGO-A56; assay: SPR (Biacore 3000), GST-human NOGO-A56 on CM5, antibody as analyte; mean (SD) of two experiments; mean (SD) of two separate experiments
Method: as §1, §2

T1 sequence (P08515 1-218, tags or fused parts left off): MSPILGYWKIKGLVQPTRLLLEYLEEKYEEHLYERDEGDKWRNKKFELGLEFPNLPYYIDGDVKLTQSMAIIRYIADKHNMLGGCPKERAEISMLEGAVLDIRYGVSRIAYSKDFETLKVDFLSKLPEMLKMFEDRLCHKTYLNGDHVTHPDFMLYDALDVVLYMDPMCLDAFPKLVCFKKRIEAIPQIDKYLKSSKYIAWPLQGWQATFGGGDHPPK

B1: H6Lc (antibody, human IgG1, kappa, V domains shown)
VH: QVQLVQSGAEVKKPGASVKVSCKASGYTFTSYWMHWVRQAPGQGLEWIGNINPSNGGTNYNEKFKSRATMTRDTSTSTAYMELSSLRSEDTAVYYCELGQGYWGQGTLVTVSS
VL: DIVITQDELSNPVTSGESVSISCRSSKSLLYKDGKTYLNWFLQRPGQSPQLLIYLMSTRASGVSDRFSGSGSGTDFTLEISRVKAEDVGVYYCQQLVEYPLTFGAGTKLELKR
notes: Humanised heavy chain H6 paired with chimeric light chain Lc; The pairing is read from the name
Work on B1 yielded a koff (GST-human NOGO-A56 [1]) of 0.00284 s⁻¹, a kon (GST-human NOGO-A56 [1]) of 2.17e+06 M⁻¹ s⁻¹ and a Kd (GST-human NOGO-A56 [2]) of 2.21 nM.
